B1: Ras-related protein Rab-8A (Homo sapiens), P61006 (parent)
chain: MAKTYDYLFKLLLIGDSGVGKTCVLFRFSEDAFNSTFISTIGIDFKIRTIELDGKRIKLQIWDTAGQERFRTITTAYYRGAMGIMLVYDITNEKSFDNIRNWIRNIEEHASADVEKMILGNKCDVNDKRQVSKERGEKLALDYGIKFMETSAKANINVENAFFTLARDIKAKMDKKLEGNSPQGSNQGVKITPDQQKRSSFFRCVLL

Variants of: B1
Conditions: with tfr1_human TFRC

Row | Variant | effect of a mutation on the interaction
1 | T22N | decreasing interaction

Source: IntAct's records for PubMed 22854040
